Measurements: patent US6576437B2, “Stimulus-inducible protein kinase complex and methods of use therefor” (Signal Pharmaceuticals, Inc., priority 1996, dated 2003)
Entries after “also recorded” stand apart in the source; their conditions may differ. Square brackets hold non-standard residues; d marks the D form. Ends that are not written are not given here. Peptide text beside a SMILES is read from it. pS = N[C@@H](COP(=O)(O)O)C(=O)O

Columns and labels:
IKK signalsome [1] = molecular target: T1, IKK signalsome (Homo sapiens, UniProt O14920+O15111); assay: Phosphorylation of synthetic peptides by the IKK signalsome (immunokinase assay); type: biochemical; conditions: peptide 100 μM; for phosphorylation of peptide by IKK signalsome: γ-[32P]-ATP, one hour at room temperature
T1 construct: endogenous in cells; host or cells: HeLa / HeLa S3 cells stimulated with TNFα; anti-MKP-1 immunoprecipitate
Protocol: FIG. 9A is an autoradiogram depicting the results of an immunokinase assay in which peptides are phosphorylated by the IKK signalsome. In the top panel, IκBα(21-41) peptides that were unphosphorylated or chemically phosphorylated on either Ser-32 or Ser-36 were incubated with the IKK signalsome in the presence of γ-[^32P]-ATP.
Phosphorylation of these peptides (100 μM) was performed using a kinase reaction as described above. Reactions were for one hour at room temperature and were terminated by the addition of SDS-PAGE loading buffer. SDS-PAGE with a 16% Tris/tricine gel (Novex, San Diego, Calif.) or a 4-20% Tris/glycine gel (Novex, San Diego, Calif.) was used to characterize the reaction products. Gels were washed, dried in vacuo, and exposed to autoradiographic film.

IKK signalsome [2] = molecular target: T1, IKK signalsome; assay: Inhibition of immunopurified IKK signalsome activity (32P incorporation into GST-IκBα(1-54)); type: biochemical; conditions: GST-IκBα(1-54) 0.56 μM, ATP 3 μM; for inhibition of IKK signalsome kinase (phosphorylation of GST-IκBα (1-54)): one hour at room temperature
Protocol: FIG. 9B is a graph illustrating the inhibition of phosphorylation of GST-IκBα (1-54) by IκBα(21-41) peptides. […] This assay only detects precipitated ^32P-labeled proteins, not ^32P-labeled peptides. Addition of the singly- or non-phosphorylated IκBα(21-41) peptides results in less phosphorylation of GST-IκBα (1-54) and apparent inhibition.
Inhibition of immunopurified IKK signalsome activity was measured by ^32P incorporation into GST-IκBα(1-54) in a discontinuous assay using the reaction conditions described above. The concentrations of GST-IκBα(1-54) and ATP used in the inhibition studies were 0.56 μM and 3 μM, respectively. Enzymatic reactions (32 μL) were carried out in wells of a 96 well assay plate for one hour at room temperature and terminated with the addition of trichloroacetic acid (TCA) (150 μL/well of 12.5% w/v). The subsequent 20 minute incubation with TCA precipitated the proteins but not peptides from solution. The TCA precipitate was collected on 96-well glass fiber plates (Packard) and washed 10 times with approximately 0.3 mL per well of Dulbecco's phosphate buffered saline pH 7.4 (Sigma) using a Packard Filtermate 196. Scintillation fluid (0.50 mL, MicroScint, Packard) was added to each well and the plate was analyzed for ^32P using a Packard TopCount scintillation counter. Less than 10% of ATP was turned over in the course of the assay reaction, ensuring that the kinetic data represented initial rate data. The inhibition constant of the P32, 36 peptide was determined by Dixon analysis (Dixon and Webb, In Enzymes (Academic Press: New York, ed. 3, 1979), pp. 350-51.

IKK signalsome [3] = molecular target: T1, IKK signalsome; assay: IKK signalsome activity in anti-MKP-1 immunoprecipitates from TNFα-stimulated HeLa S3 cells pretreated with inhibitor; type: cell-based; conditions: HeLa S3 cells pretreated 30 min with 15 μM prior to TNFα (20 ng/ml, 7 min)
Protocol: FIG. 8B illustrates the stimulus-dependent activation of IKK signalsome, which is blocked by TPCK. Anti-MKP-1 immunoprecipitates from cell extracts of HeLa S3 cells either stimulated for 7 min with TNFα (20 ng/ml, lane 2 and 6), IL-1 (10 ng/ml, lane 3), PMA (50 ng/ml, lane 4) or pretreated for 30 min with TPCK (15 μM, lane 7) prior to TNFα-induction were examined for IKK signalsome activity. GST IκBα 1-54 WT (4 μg) was used as a substrate.
For these studies, small scale immunoprecipitation were performed using two 150 mm plates of HeLa cells (one stimulated and one unstimulated). Whole cell lysates were diluted 4-fold with 2×Pull-Down Buffer (40 mM Tris pH 8.0, 500 mM NaCl, 0.1% NP-40, 6 mM EDTA, 6 mM EGTA, 10 mM β-glycerophosphate, 10 mM NaF, 10 mM PNPP, 300 μM Na3VO4, 1 mM benzamidine, 2 μM PMSF, 10 μg/ml aprotonin, 1 μg/ml leupeptin, 1 μg/ml pepstatin, 1 mM DTT) and 2-4 μg of the indicated antibody was added. Lysates were incubated on ice for 1-2 hours, 10 μl of Protein A or G beads were added, and lysates were left to incubate with gentle rotation for an additional 1 hour at 4° C. The immunoprecipitate was then washed 3 times with 2×Pull-Down Buffer, 1× with kinase buffer without ATP and subjected to a kinase assay as described in Example 2. […]

[4] = test system: RelA translocation in HeLa cells; assay: RelA nuclear translocation in transiently transfected HeLa cells (immunofluorescence); type: cell-based, human
Protocol: HeLa cells were transiently transfected with either HA-tagged IKK-1 K44 to M mutant (14B) or Flag-tagged IKK-2 K44 to M mutant (14C) expression vectors. 36 hours post-transfection cells were either not stimulated (Unstim) or TNFα-stimulated (20 ng/ml) for 30 min (TNFα), as indicated to the right of the figure. Cells were then subjected to immunofluorescence staining using anti-HA of anti-Flag antibodies to visualize expression of IKK-1 K44 to M or IKK-2 K44 to M, respectively. Stimulus-dependent translocation of Rel A was monitored using anti-Rel A antibodies. Antibodies used are indicated to the top of the figure. IKK mutant transfected is indicated to the left of the figure.
For these studies, HeLa cells were transiently transfected with either HA-tagged IKK-1 or Flag-tagged IKK-2. Cells were fixed for 30 minutes with methanol. For immunofluorescence staining, the cells were incubated sequentially with primary antibody in PBS containing 10% donkey serum and 0.25% Triton X-100 for 2 hours followed by fluorescein-conjugated or Texas red-conjugated secondary antibody (Jackson Immunoresearch Laboratories, Inc., West Grove, Pa.; used at 1:500 dilution) for 1 hour at room temperature. The coverslips were rinsed and coverslipped with Vectashield (Vector Laboratories, Burlingame, Calif.) before scoring and photographing representative fields. […]

T1 sequence (O15111 whole entry): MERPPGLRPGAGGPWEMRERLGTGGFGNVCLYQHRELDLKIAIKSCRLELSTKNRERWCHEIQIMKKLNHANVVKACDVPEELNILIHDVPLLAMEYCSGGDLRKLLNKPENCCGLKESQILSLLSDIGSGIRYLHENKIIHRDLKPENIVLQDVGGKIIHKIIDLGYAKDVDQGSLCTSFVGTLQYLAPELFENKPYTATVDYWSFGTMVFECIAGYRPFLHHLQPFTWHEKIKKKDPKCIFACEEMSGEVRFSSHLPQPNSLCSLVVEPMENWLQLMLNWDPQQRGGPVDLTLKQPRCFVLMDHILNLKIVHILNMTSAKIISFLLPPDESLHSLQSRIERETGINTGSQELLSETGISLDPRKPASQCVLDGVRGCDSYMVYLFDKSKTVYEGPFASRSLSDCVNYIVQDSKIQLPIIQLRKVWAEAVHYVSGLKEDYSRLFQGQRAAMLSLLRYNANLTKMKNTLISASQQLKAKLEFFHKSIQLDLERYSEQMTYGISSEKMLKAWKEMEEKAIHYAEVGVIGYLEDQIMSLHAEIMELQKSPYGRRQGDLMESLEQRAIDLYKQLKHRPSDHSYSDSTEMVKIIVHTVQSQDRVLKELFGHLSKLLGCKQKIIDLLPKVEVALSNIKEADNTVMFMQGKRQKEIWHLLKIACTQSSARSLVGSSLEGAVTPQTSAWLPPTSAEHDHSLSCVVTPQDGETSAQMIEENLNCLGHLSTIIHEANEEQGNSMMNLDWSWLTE
T1 sequence (O14920 whole entry): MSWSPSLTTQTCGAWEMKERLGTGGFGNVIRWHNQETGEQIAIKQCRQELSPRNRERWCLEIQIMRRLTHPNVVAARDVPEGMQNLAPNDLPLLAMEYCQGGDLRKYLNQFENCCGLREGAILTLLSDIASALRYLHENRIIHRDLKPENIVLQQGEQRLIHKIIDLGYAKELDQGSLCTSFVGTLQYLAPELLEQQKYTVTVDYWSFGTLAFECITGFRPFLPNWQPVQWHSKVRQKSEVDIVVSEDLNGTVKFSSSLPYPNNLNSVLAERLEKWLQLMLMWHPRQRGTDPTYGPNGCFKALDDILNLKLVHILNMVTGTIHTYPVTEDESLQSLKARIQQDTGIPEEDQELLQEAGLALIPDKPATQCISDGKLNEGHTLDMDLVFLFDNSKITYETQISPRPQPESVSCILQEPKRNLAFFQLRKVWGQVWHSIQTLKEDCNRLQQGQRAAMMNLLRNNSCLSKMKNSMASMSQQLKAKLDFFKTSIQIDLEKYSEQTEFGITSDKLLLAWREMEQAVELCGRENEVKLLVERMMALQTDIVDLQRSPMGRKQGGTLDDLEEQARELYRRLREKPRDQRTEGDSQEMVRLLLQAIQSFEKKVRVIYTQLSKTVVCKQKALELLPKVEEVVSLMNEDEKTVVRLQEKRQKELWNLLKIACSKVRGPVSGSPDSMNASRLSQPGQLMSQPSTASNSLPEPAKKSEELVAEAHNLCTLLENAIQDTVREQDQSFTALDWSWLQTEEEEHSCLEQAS
T1 sequence (Q9Y6K9 whole entry partner): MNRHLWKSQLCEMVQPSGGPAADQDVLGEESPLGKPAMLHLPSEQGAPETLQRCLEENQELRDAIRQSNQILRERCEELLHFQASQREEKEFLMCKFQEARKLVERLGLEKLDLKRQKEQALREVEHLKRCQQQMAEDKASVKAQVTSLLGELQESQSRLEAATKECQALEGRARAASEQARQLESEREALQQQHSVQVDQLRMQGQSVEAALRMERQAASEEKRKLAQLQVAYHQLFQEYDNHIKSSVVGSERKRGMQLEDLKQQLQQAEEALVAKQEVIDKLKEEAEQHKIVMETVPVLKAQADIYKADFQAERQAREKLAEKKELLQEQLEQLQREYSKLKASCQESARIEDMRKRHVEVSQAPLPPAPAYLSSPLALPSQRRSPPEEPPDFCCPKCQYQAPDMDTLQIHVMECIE

## CKKERLLDDRHDTGLDTMKDEE
IKK signalsome [1]
  phosphorylation by the signalsome, fold less well than the wild-type serine-containing peptide: at least 10 fold

## CPTNSALNYLKSPITTSPS [MKP-1 peptide]
IKK signalsome [1]
  phosphorylation of peptide by IKK signalsome: did not phosphorylate

## CKKERLLDDRHDSGLDSMKDEE [IκBα (21-41) peptide]
IKK signalsome [2]
  inhibition of IKK signalsome kinase (phosphorylation of GST-IκBα (1-54)): less effective inhibitors
IKK signalsome [1]
  phosphorylation of peptide by IKK signalsome: capable of phosphorylating

## Cc1ccc(S(=O)(=O)N[C@@H](Cc2ccccc2)C(=O)CCl)cc1 [TPCK]
IKK signalsome [3]
  IKK signalsome activity in treated cells: inhibited; also recorded: blocked

## singly-phosphorylated IκBα peptides: two IκBα (21-41) peptides, free serine at position 32 or 36 and phosphoserine at the other position (KKERLLDDRHDSGLDSMKDEE; not fully specified (N-terminus); also: pS at S32 or S36, free Ser at the other (two peptides); UniProt P25963 21-41, looked up, fragment)
IKK signalsome [2]
  inhibition of IKK signalsome kinase (phosphorylation of GST-IκBα (1-54)): less effective inhibitors

## DLTGGPEVAT(PO3)PESEEAFLP [c-Fos(222-241)]
IKK signalsome [2]
  inhibition of IKK signalsome kinase (phosphorylation of GST-IκBα (1-54)): does not function as an inhibitor
IKK signalsome [2]; listed as c-Fos phosphopeptide
  inhibition of IKK signalsome kinase (phosphorylation of GST-IκBα (1-54)): not
IKK signalsome [2]; listed as c-fos phosphopeptide
  inhibition of IKK signalsome kinase (phosphorylation of GST-IκBα (1-54)): not
IKK signalsome [1]
  phosphorylation of peptide by IKK signalsome: did not function as a signalsome substrate
IKK signalsome [1]; listed as c-Fos phosphopeptide
  phosphorylation of peptide by IKK signalsome: did not phosphorylate

## CSCC[C@H](NC(=O)[C@H](COP(=O)(O)O)NC(=O)[C@H](CC(=O)O)NC(=O)[C@H](CC(C)C)NC(=O)CNC(=O)[C@H](COP(=O)(O)O)NC(=O)[C@H](CC(=O)O)NC(=O)[C@H](Cc1c[nH]cn1)NC(=O)[C@H](CCCNC(=N)N)NC(=O)[C@H](CC(=O)O)NC(=O)[C@H](CC(=O)O)NC(=O)[C@H](CC(C)C)NC(=O)[C@H](CC(C)C)NC(=O)[C@H](CCCNC(=N)N)NC(=O)[C@H](CCC(=O)O)NC(=O)[C@H](CCCCN)NC(=O)[C@H](CCCCN)NC(=O)[C@@H](N)CS)C(=O)N[C@@H](CCCCN)C(=O)N[C@@H](CC(=O)O)C(=O)N[C@@H](CCC(=O)O)C(=O)N[C@@H](CCC(=O)O)C(=O)O [IκBα(21-41) peptide P32,36] (H-CKKERLLDDRHD[pS]GLD[pS]MKDEE-OH)
IKK signalsome [2]; Dixon analysis, read-out: Ki (product inhibition of GST-IκBα (1-54) phosphorylation)
  Ki: 14 µM

B1: IKK-2 mutant: Flag-tagged kinase-inactive version (K44 to M) of IKK-2 (protein, UniProt O14920 1-756, looked up, variant K44M)
Inhibitor of nuclear factor …: MSWSPSLTTQTCGAWEMKERLGTGGFGNVIRWHNQETGEQIAIMQCRQELSPRNRERWCLEIQIMRRLTHPNVVAARDVPEGMQNLAPNDLPLLAMEYCQGGDLRKYLNQFENCCGLREGAILTLLSDIASALRYLHENRIIHRDLKPENIVLQQGEQRLIHKIIDLGYAKELDQGSLCTSFVGTLQYLAPELLEQQKYTVTVDYWSFGTLAFECITGFRPFLPNWQPVQWHSKVRQKSEVDIVVSEDLNGTVKFSSSLPYPNNLNSVLAERLEKWLQLMLMWHPRQRGTDPTYGPNGCFKALDDILNLKLVHILNMVTGTIHTYPVTEDESLQSLKARIQQDTGIPEEDQELLQEAGLALIPDKPATQCISDGKLNEGHTLDMDLVFLFDNSKITYETQISPRPQPESVSCILQEPKRNLAFFQLRKVWGQVWHSIQTLKEDCNRLQQGQRAAMMNLLRNNSCLSKMKNSMASMSQQLKAKLDFFKTSIQIDLEKYSEQTEFGITSDKLLLAWREMEQAVELCGRENEVKLLVERMMALQTDIVDLQRSPMGRKQGGTLDDLEEQARELYRRLREKPRDQRTEGDSQEMVRLLLQAIQSFEKKVRVIYTQLSKTVVCKQKALELLPKVEEVVSLMNEDEKTVVRLQEKRQKELWNLLKIACSKVRGPVSGSPDSMNASRLSQPGQLMSQPSTASNSLPEPAKKSEELVAEAHNLCTLLENAIQDTVREQDQSFTALDWSWLQTEEEEHSCLEQAS
modifications: Flag tag
[4]; TNFα-stimulated (20 ng/ml, 30 min) HeLa cells, 36 hours post-transfection
  inhibition of RelA nuclear translocation: striking and complete
[4]; unstimulated HeLa cells
  effect on subcellular localization of RelA: no effect
